Results taken from patent US12357692B2, “Method of treating influenza A” (MEDIMMUNE, LLC, priority 2016, dated 2025).

Assays:
[1] = Anti-drug antibody (ADA) responses in serum, electrochemiluminescent solution-phase bridging immunoassay; format: in vivo, human; conditions: Days 15, 29 and 101 after single IV dose
Text: Blood samples were collected at Days 15(±1), 29(±2) and 101(±5) to evaluate anti-drug antibody (ADA) responses to MEDI8852 in serum using an electrochemiluminescent, solution-phase, bridging immunoassay. All ADA results were negative (i.e., no anti-drug antibody was found).

[2] = tested on: influenza A virus infection; conditions: human, in vivo, iv
[3] = in vivo

Substance: MEDI8852: human IgG1 kappa monoclonal antibody that binds the conserved stalk region of influenza HA protein; VH SEQ ID NO:2, VL SEQ ID NO:7
- anti-drug antibody (ADA) results [1]: negative
- efficacy [2]: better than oseltamivir alone
- half-life following a single IV dose ([3]; human, iv): 19.4 to 22.6 days
- PK dose linearity [3]: dose-linear
